Test results from patent US20110111454.

What was measured:
[1] = system: IFNα2b[Tn]-FCHASE
[2] = molecular target: IFNα2b[Tn] (UniProt P01563)
[3] = molecular target: [Tn]-MalE-hGH (UniProt P01241)
[Tn]-MalE-hGH, sequence (P01241 27-217): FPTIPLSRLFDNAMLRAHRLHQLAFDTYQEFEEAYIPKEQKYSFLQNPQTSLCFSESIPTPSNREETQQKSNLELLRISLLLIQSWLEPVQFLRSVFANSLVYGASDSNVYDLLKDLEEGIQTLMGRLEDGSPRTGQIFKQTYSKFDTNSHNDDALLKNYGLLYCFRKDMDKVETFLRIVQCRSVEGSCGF

IFNα2b[Tn], sequence (P01563 whole entry, looked up): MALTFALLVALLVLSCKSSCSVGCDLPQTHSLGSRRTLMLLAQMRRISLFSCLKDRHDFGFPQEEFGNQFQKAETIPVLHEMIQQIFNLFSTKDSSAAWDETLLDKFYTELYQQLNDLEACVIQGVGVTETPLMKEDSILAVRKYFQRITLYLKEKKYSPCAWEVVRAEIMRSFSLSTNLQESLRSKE

Substance	CE-MS mass shift of the peptide [1]	Specific Activity (mU/mg) on 1 mM IFNα2b[Tn]-FCHASE [1] [mU/mg]	percent of IFNα2b[Tn]-FCHASE converted into IFNα2b[T-Ag]-FCHASE after 30 minutes (capillary electrophoresis) [1]	MALDI mass of the galactosylated protein [2]	PNA blot after the galactosylation reaction [3]
CgtBOH4384 (Δ30, C-terminal MalE)	the molecular weight of IFNα2b[T-Ag]-FCHASE was 162 Dalton higher than that of IFNα2b[Tn]-FCHASE	272	91.9% of the material had been converted into IFNα2b[T-Ag]-FCHASE	The presence of the species at m/z 19665 is the proof that the IFNα2b[Tn] protein can be galactosylated by CJL-136	
CgtB11168 (Δ30, C-terminal MalE)					Increased staining in Lane D after PNA blotting
CgtBOH4384 (Δ30, N-terminal MalE)		14			
